By Km is commonly meant the concentration of substrate that gives half-maximal velocity.

In publication PMC5017680, “treA Codifies for a Trehalase with Involvement in Xanthomonas citri subsp. citri Pathogenicity” (PLoS ONE, 2016) one finds Km data, which are given here for one substance.

In this data set the test system is OC[C@H]1O[C@H](O[C@H]2O[C@H](CO)[C@@H](O)[C@H](O)[C@H]2O)[C@H](O)[C@@H](O)[C@@H]1O. As to the kind of experiment: purified protein. Particulars: 25 °C, Glucose Liquiform kit solution, 0.03125-4 mM trehalose.

As to “Xcc TreA (recombinant Xcc trehalase) (Xanthomonas citri subsp. citri 306)”, the Km amounted to 77 µM.
